# According to the supplement of paper PMC12764529:
# ± gives the half width of the 95% confidence interval.
# Assay: folding stability dG unfold from trypsin proteolysis; higher = more stable
# Summary of the method: (§1)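 Sequencing followed digestion of designed mini-proteins with trypsin and chymotrypsin, each at 11 concentrations in threefold dilutions together with a no-protease condition. The mini-proteins were under 80 residues, had no cysteine, sat in a PA-tagged cDNA display construct, and were kept only if AlphaFold2 dimer inter-PAE was above 15. From the counts, Bayesian fitting gave K50, and unfolding free energy was derived against a sequence-predicted unfolded-state K50 and a shared folded-state K50, per protease or combined.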
row,Sequence,folding stability dG unfold [kcal/mol]
1,SYTLEFEDITLKPVEPGTKISIPGYVKYDGVLYKVTEVTYDPEKGTITITIKVEPEGKPKTLTITIPIPPPS [r1_47_JUSTAS],2.24 ± 0.11
2,SAGGSAKVIRVKSLEEALKLAEEAKKAGLEVEIKLLPDGSVLITVKPKPKPKVKKVEKKVKLPEGKSAGGSA [r15_761_TrROS_Hall],0.507 ± 0.074
3,SAGGSAGGSGIPVEPIPVRNPKGEIVEVIRFPEDFALVVFPSGERALLRGPELSLRDVVFFPLSAGGSAGGS [r12_491_TrMRF],0.675 ± 0.023
4,SAVITYPIPDDKPTLILEPLPGSESLLILSTKREKIPNGTYKVEALVVRYEPALGASVEEKVELIEPIGSAG [r14_591_JUSTAS],-0.819 ± 0.46
5,SAGGSAGGSAGGMRKYLVTLKPPNGPVTRYILPSEEEIKEFVAPLNAEYEVTPLSEDVPPSAGGSAGGSAGG [r7_456_JUSTAS],0.0557 ± 0.1
6,SAGGSAGGMLRVRVETTLPGSGETLDLELEFPSEEEARRAIEALVPPEERAEVRVEFLPPGVPESAGGSAGG [r6_657_JUSTAS],-0.156 ± 0.37
7,SAGGSAGGSAGGKIKLTVTVDADGNATVTLEIEVESPEDKPFTIRLTLTFPLKDGESLTSAGGSAGGSAGGS [r10_763_TrMRF],3.9 ± 0.29
8,SAGMKSLTITETVTDPNSDNPITIITDPVTGKVIKLYPDGTATVYDPNNPNKSTTYKMSPEEVIEKMSSSAG [r5_491_JUSTAS],0.0921 ± 0.053
9,SAGGSSIKIEKIEKHENGVKIDISVPDLSNEEEINAVKKKLAEELGLKEEDVEVSLKSENIPLPPSIGSAGG [r13_430_JUSTAS],0.474 ± 0.11
10,SAGGSAGGSAGGFVLTFTLPDSVVRITLPEDANPEEIKQRLLEEHGVPIELRLIPPSNPLSAGGSAGGSAGG [r11_805_JUSTAS],0.726 ± 0.12
11,SAGGSAGGSKELLKNLPPGAKITVEKKEDGTVRITITNKDGSEKEIEIKVNGKIIKLTIKKKPSAGGSAGGS [r20_50_TrROS_Hall],2.04 ± 0.098
12,SAGGAGDQPVVIVATGSDGSPRVFPFKTKEPFKVTVNFPDEKRVFTVPADEPFVFDAPDGDILLDASSAGGS [r16_456_TrMRF],-0.23 ± 0.11
13,SAGGSAGGNVLIPKSKLEEFLKNIPFEVLVLNPENPRLEIARVEADDIFVDDDYALILLTVSNDSAGGSAGG [r6_753_TrMRF],1 ± 0.032
14,SAGGSAGGKPKPVLRTFEVRDPATGELYKVELVVLDDGSVRALVTRRDGRKREFTFDAPASLILSAGGSAGG [r6_588_TrMRF],1.59 ± 0.019
15,SAGGSAGGSAGGMIIIIPTPKGTVALVIDENSDKPTLIEASPDEIPDLIEKGAKEVIILPSAGGSAGGSAGG [r7_266_TrMRF],0.363 ± 0.072
16,SAGGSAGGSNTITVFMKVDDPEDALDEISEEIRDLFPPGIEVEIQPEQNEDKRGWVQVTIEFKSAGGSAGGS [r20_122_TrROS],1.04 ± 0.063
17,SAGGSAKIVIKPDGTIEVEVNGKTFTFPPGAEIEIEEKDGELVLRIRLFNKDGKEVEEFEVTVRIESAGGSA [r15_424_TrROS_Hall],4.36 ± 0.19
18,SAGNIRIDVHVPPDGYYMIKIRFPGNGREANIMLPPNDPDKFKELAEEIAENLFEEGFPIEVDIEPIPPSAG [r5_815_TrROS],1.56 ± 0.07
19,SMVFTLPGGIEIKVEPEEDSYRFVIELPSGERLEVPVPPENLEEFIRELIRKALEIANPNITEEEIEKLASA [r9_634_TrMRF],3.22 ± 0.26
20,SAGGMLVVLLDDRPEVLPVNPERFETPEEAVEAVAREVAERFPDAGERRVVVVNEDGEEVATVELTPESAGG [r13_257_TrMRF],-1.08 ± 0.12
21,SAGGSAGGSAGGGDFEKVKVRFRYVNPDGGPERDIEIEVEARKEDIPRLLKELKDAGLIESAGGSAGGSAGG [r7_618_TrMRF],0.982 ± 0.054

# Assay: folding stability dG unfold from chymotrypsin proteolysis; higher = more stable
# Summary of the method: as §1
row,Sequence,folding stability dG unfold [kcal/mol]
1,SAGGMVIVIKTPGGASELEIGDLTITTNPDTGLRVAEATPEQIEELLKADALKDIEEIEVLPIEELLSAGGS [r8_493_TrMRF],-0.0529 ± 0.038
2,SAMLPSIIIAKAKEAIEKSGKPVPVVIKIPVYKKENGPPVSLEKAKEIFEKLKEAFPDVPIIIELEEPESAG [r14_636_TrMRF],0.539 ± 0.034
3,GSLVTVFPFPENGKTVEVVVPESVGTPLSEAEIRALLLEAHPDVPAAALPAEEAAEILQATPGVEAARVVAS [r1_463_JUSTAS],-0.0131 ± 0.19
4,SAGGSAGGSAGKEKTITVLLEVDGYLVVAEVKLNEDGSLEITSVKVIKLPKPKPSPEALKSAGGSAGGSAGG [r11_843_TrROS_Hall],0.516 ± 0.033
5,SAGGSLSEIIEKAKELAKKKYPNKGVTVPVEIKYKDPVKKKWIKVKIEITFDKNGNIIKITIKEIKLESAGG [r13_770_JUSTAS],4.04 ± 0.12
6,SAGGSAGGSAEWKPITYWVPPGQSIKEIADDLMDKNPRITDAEMEYDPDGYMKVTLTVRLDSAGGSAGGSAG [r3_371_TrROS],0.505 ± 0.14
7,SAGGSPPPLRITYKIRMGGQPFEWTIPIPADDLPPGQQIEIDIRIKKMDPENNRMRMEIDDVEVTPSAGGSA [r2_479_TrROS],0.979 ± 0.27
8,SAGVKPTPSGKNILEIDPETGKIRFVNNNGELFELPTGNDSLDAAIKEAVEKLGYPPDTPFNIDEIKIGSAG [r5_923_TrMRF],1.76 ± 0.065
9,SAWNFKIEEVEVDPNDGRIWFTVKIPPNNPELAEEIAEELQDYGIKVKLINPDLPPGQTIIVQIEVKDPSAG [r14_354_TrROS],2.09 ± 0.18
10,SAGGGMTFNFTAPDGTPYEDVTTTPLPDGSTLVTVTQEDPKNPGVVTVTLIRLPSGADALEVTSGPVVSAGG [r13_370_JUSTAS],0.803 ± 0.087
11,SAGGSAGGSAGIITIWFPPDEEFRDFIENLPGPIEDVNIEPRNPGWIKVTLTMRMPPDQVSAGGSAGGSAGG [r11_143_TrROS],0.864 ± 0.17
12,SAGGSDEHEYKGTGRDPDNGQTREETYRVEPVVPPIPISISVSLNLDIDPNGNLNWDFNISIGIGISAGGSA [r2_326_TrROS],3.81 ± 0.33
13,SAGPWNIMVYDNGEPLEMIEIKGDEITIPLPPGPVRIAIFNPDDNGFVEEEVTPEDGTIEMKIPKGAKISAG [r5_469_TrROS],0.207 ± 0.33
14,SKKVVFVTYPKTSVKEIVEKLKENPNTEFVFLMPSSVGPEFYEKLKKALKEANIPKEQKVLFLPVEENSLSA [r9_670_TrMRF],3.106 ± 0.015
15,SAGMMYKITIKTKNGEKIEIEIPAEELENLTEEQLKELAKELAKKLEEEGIEVEKVEVKIEPVKPEELSAGG [r19_334_TrROS_Hall],2.93 ± 0.058
16,SAGGPKWYYITIKIPDDPKKAERLVDRLQDLFGEDVRINVNPGNNHVTVWIPNDLRPLLKDHGLEITPSAGG [r13_156_TrROS],2.95 ± 0.02
17,SAGGIEIPVNPHPSEDGQPYVMFTLEIEPKDDNGKKQERPIPFMFDSPDDAEEFASEAAPDGYKIRISAGGS [r16_652_TrROS],0.196 ± 0.11
18,SAMEKGKALKYREVIPLPDGPVELEIIYFPETGEYVAIIRNPSTGEKVEIPFKFDSLEDAVKAAKDFVASAG [r14_65_TrMRF],3.705 ± 0.029
19,SAGGGISIVSGDPEITPEKAEAIAAELAAILEEKGFTPKDAELARLPGGRILVTITVDDGKPIVFSLSAGGS [r8_485_TrMRF],1.15 ± 0.019
20,SAGGSDRVLVPAGPSDYDVLVVVTPGPGDLVGVDALVIHPDGTPLAVRGVLDPTTGGISPVAVDPLSAGGSA [r2_402_TrMRF],0.243 ± 0.051
21,SAGGSKIKIVEVKKNEDGTVTVKVEVEINGKKYTIEARFETLEDGKKVMTLRITNENGEEIEIVLPSAGGSA [r2_376_TrROS_Hall],5.22 ± 0.17

row,Sequence,folding stability dG unfold [kcal/mol]
1,SYTLEFEDITLKPVEPGTKISIPGYVKYDGVLYKVTEVTYDPEKGTITITIKVEPEGKPKTLTITIPIPPPS [r1_47_JUSTAS],1.85 ± 0.086
2,SAGGSAKVIRVKSLEEALKLAEEAKKAGLEVEIKLLPDGSVLITVKPKPKPKVKKVEKKVKLPEGKSAGGSA [r15_761_TrROS_Hall],1.96 ± 0.077
3,SAGGSAGGSGIPVEPIPVRNPKGEIVEVIRFPEDFALVVFPSGERALLRGPELSLRDVVFFPLSAGGSAGGS [r12_491_TrMRF],0.305 ± 0.054
4,SAVITYPIPDDKPTLILEPLPGSESLLILSTKREKIPNGTYKVEALVVRYEPALGASVEEKVELIEPIGSAG [r14_591_JUSTAS],-0.216 ± 0.56
5,SAGGSAGGSAGGMRKYLVTLKPPNGPVTRYILPSEEEIKEFVAPLNAEYEVTPLSEDVPPSAGGSAGGSAGG [r7_456_JUSTAS],0.72 ± 0.072
6,SAGGSAGGMLRVRVETTLPGSGETLDLELEFPSEEEARRAIEALVPPEERAEVRVEFLPPGVPESAGGSAGG [r6_657_JUSTAS],1.44 ± 0.08
7,SAGGSAGGSAGGKIKLTVTVDADGNATVTLEIEVESPEDKPFTIRLTLTFPLKDGESLTSAGGSAGGSAGGS [r10_763_TrMRF],3.88 ± 0.12
8,SAGMKSLTITETVTDPNSDNPITIITDPVTGKVIKLYPDGTATVYDPNNPNKSTTYKMSPEEVIEKMSSSAG [r5_491_JUSTAS],0.967 ± 0.088
9,SAGGSSIKIEKIEKHENGVKIDISVPDLSNEEEINAVKKKLAEELGLKEEDVEVSLKSENIPLPPSIGSAGG [r13_430_JUSTAS],2.32 ± 0.21
10,SAGGSAGGSAGGFVLTFTLPDSVVRITLPEDANPEEIKQRLLEEHGVPIELRLIPPSNPLSAGGSAGGSAGG [r11_805_JUSTAS],0.664 ± 0.38
11,SAGGSAGGSKELLKNLPPGAKITVEKKEDGTVRITITNKDGSEKEIEIKVNGKIIKLTIKKKPSAGGSAGGS [r20_50_TrROS_Hall],0.245 ± 0.42
12,SAGGAGDQPVVIVATGSDGSPRVFPFKTKEPFKVTVNFPDEKRVFTVPADEPFVFDAPDGDILLDASSAGGS [r16_456_TrMRF],0.697 ± 0.12
13,SAGGSAGGNVLIPKSKLEEFLKNIPFEVLVLNPENPRLEIARVEADDIFVDDDYALILLTVSNDSAGGSAGG [r6_753_TrMRF],0.221 ± 0.18
14,SAGGSAGGKPKPVLRTFEVRDPATGELYKVELVVLDDGSVRALVTRRDGRKREFTFDAPASLILSAGGSAGG [r6_588_TrMRF],2.08 ± 0.042
15,SAGGSAGGSAGGMIIIIPTPKGTVALVIDENSDKPTLIEASPDEIPDLIEKGAKEVIILPSAGGSAGGSAGG [r7_266_TrMRF],1.22 ± 0.052
16,SAGGSAGGSNTITVFMKVDDPEDALDEISEEIRDLFPPGIEVEIQPEQNEDKRGWVQVTIEFKSAGGSAGGS [r20_122_TrROS],1.15 ± 0.33
17,SAGGSAKIVIKPDGTIEVEVNGKTFTFPPGAEIEIEEKDGELVLRIRLFNKDGKEVEEFEVTVRIESAGGSA [r15_424_TrROS_Hall],5.51 ± 0.18
18,SAGNIRIDVHVPPDGYYMIKIRFPGNGREANIMLPPNDPDKFKELAEEIAENLFEEGFPIEVDIEPIPPSAG [r5_815_TrROS],2.34 ± 0.095
19,SMVFTLPGGIEIKVEPEEDSYRFVIELPSGERLEVPVPPENLEEFIRELIRKALEIANPNITEEEIEKLASA [r9_634_TrMRF],4.02 ± 0.09
20,SAGGMLVVLLDDRPEVLPVNPERFETPEEAVEAVAREVAERFPDAGERRVVVVNEDGEEVATVELTPESAGG [r13_257_TrMRF],0.875 ± 0.04
21,SAGGSAGGSAGGGDFEKVKVRFRYVNPDGGPERDIEIEVEARKEDIPRLLKELKDAGLIESAGGSAGGSAGG [r7_618_TrMRF],1.25 ± 0.15
